Laboratory results reported in patent US20240182594A1.

Molecular target: human OX40 (human) (UniProt P43489)
Test: cell-based or functional assay

Sequence of UniProt P43489 (P43489 29-277): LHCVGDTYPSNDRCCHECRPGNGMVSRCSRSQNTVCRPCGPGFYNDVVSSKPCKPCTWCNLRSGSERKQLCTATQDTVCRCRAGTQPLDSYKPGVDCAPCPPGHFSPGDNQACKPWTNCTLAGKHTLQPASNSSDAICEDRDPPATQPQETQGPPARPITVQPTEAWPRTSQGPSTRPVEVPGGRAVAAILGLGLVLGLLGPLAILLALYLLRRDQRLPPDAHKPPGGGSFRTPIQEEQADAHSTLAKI

For “soluble OX40 ligand (BPS Biosciences, Catalog #71185) (from UniProt P23510 51-183)”, the EC50 for T cell costimulation (proliferation of activated CD4+ Teff cells, CellTiter-Glo) was 14 µg/mL.
